From PMC7299955, “GTP hydrolysis by Synechocystis IM30 does not decisively affect its membrane remodeling activity” (Scientific Reports, 2020)
Substitutions are numbered along the chain they refer to. Names may count otherwise.

Columns and labels:
SynIM30 WT [1] = target: T1, SynIM30 WT (Synechocystis sp. PCC 6803, UniProt Q55707); assay: thermal denaturation, CD at […] nm; assay type: binding; conditions: 0.5 mM GTP with or without 2.5 mM Mg2+; 3.2 µM protein
T1 construct: gene vipp1; full length, N-terminal His-tag kept (pRSET IM30 WT), E. coli BL21(DE3), Ni-NTA; high molecular mass homo-oligomeric rings
T1 sequence (Q55707 1-267): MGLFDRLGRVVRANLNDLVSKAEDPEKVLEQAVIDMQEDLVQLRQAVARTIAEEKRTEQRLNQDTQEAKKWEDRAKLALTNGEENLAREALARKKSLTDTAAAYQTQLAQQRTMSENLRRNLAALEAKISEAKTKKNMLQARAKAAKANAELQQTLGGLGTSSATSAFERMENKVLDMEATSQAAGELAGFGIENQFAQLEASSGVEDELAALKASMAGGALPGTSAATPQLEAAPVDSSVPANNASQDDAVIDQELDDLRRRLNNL

SynIM30 WT [2] = target: T1, SynIM30 WT; assay: malachite green Pi release; assay type: biochemical; conditions: 0.5 mM GMP-PCP, GTP varied, 2.5 mM Mg2+, 37 °C; competitive or allosteric not resolved
Excerpt: malachite green Pi release on SynIM30 WT | […]

[3] = substrate: Nc1nc2c(ncn2[C@@H]2O[C@H](COP(=O)(O)OP(=O)(O)OP(=O)(O)O)[C@@H](O)[C@H]2O)c(=O)[nH]1; assay: malachite green Pi release, Hill fit; assay type: biochemical, Synechocystis sp. PCC 6803; conditions: 2.5 mM Mg2+, 20 mM HEPES, 37 °C, 30 min, Hill coefficient 1.29 ± 0.09
[4] = target: the molecule itself; assay: SEC; Superose 12 10/300 GL column, 20 mM HEPES pH 7.6, 8 °C, elution followed at 280 nm; calibrated against standards of known size

## Nc1nc2c(ncn2[C@@H]2O[C@H](COP(=O)(O)OP(=O)(O)OP(=O)(O)O)[C@@H](O)[C@H]2O)c(=O)[nH]1 [GTP]
SynIM30 WT [1]
  Tm: This suggests that GTP binding affects the structure and stability of IM30 to some extent

## Nc1nc2c(ncn2[C@@H]2O[C@H](COP(=O)(O)OP(=O)(O)CP(=O)(O)O)[C@@H](O)[C@H]2O)c(=O)[nH]1 [GMP-PCP]
SynIM30 WT [2]
  malachite green Pi release: Addition of the non-hydrolyzable GTP analog GMP-PCP

B1: Synechocystis IM30 wild type (inner membrane-associated protein of 30 kDa) (natural protein, Synechocystis sp. PCC 6803, UniProt Q55707 1-267, looked up)
chain: T1 sequence (Q55707 1-267)
notes: IM30 (Vipp1) of the cyanobacterium Synechocystis sp; PCC 6803; Forms high molecular mass homo-oligomers (>300 kDa by SEC); the number of chains in them is not determined here; also called SynIM30; SynIM30 WT; source: E. coli BL21 (DE3), purified (Ni-NTA, Sephadex G25 buffer exchange)
[3]
  Km: 650 ± 140 µM
  kcat: 0.036 ± 0.0055 s⁻¹
[4]
  binding result: binds

B2: SynIM30 FERM_EE (E83A, E84A, F168A, E169A, R170A, M171A) (natural protein, Synechocystis sp. PCC 6803, UniProt Q55707 1-267, looked up)
chain: T1 sequence (Q55707 1-267) with E83A, E84A, F168A, E169A, R170A, M171A
notes: IM30 (Vipp1) of Synechocystis sp; PCC 6803 with six mutations brought into the plasmid of IM30 WT; mainly tetramers in buffers of low ionic strength; also called tetrameric SynIM30 variant; source: E. coli BL21 (DE3), purified (Ni-NTA, Sephadex G25 buffer exchange)
[4]
  stoichiometry N: 4
